From publication PMC12689640

Legend:
[1] = target: μOR W293^6.48A-RLuc8 (mouse) (UniProt P42866)
[2] = target: μOR Q124^2.60L-RLuc8 (mouse) (UniProt P42866)
[3] = target: μOR Y326^7.43F-RLuc8 (mouse) (UniProt P42866)
[4] = target: μOR S329^7.46A-RLuc8 (mouse) (UniProt P42866)
[5] = target: μOR N86^1.50A-RLuc8 (mouse) (UniProt P42866)

“Gi heterotrimer of the dissociation assay (Gαi1-RLuc8, Gβ1, Venus-Gγ2) (from UniProt P63096 1-354; P62873 1-340; P59768 1-71) (complex)” gave an efficacy of Gi activation against wild type (Gi dissociation BRET) [1] of 35 to 60%, an efficacy of Gi dissociation against wild type (BRET), stimulated with DAMGO [2] of 60% and a decrease of Gi dissociation efficacy against wild type (BRET) [3] of 30%. For the same substance, the decrease of Gi dissociation efficacy against wild type (BRET) [4] was 40% and the efficacy of Gi activation against wild type (Gi dissociation BRET) [5] was 40 to 60%.
